Measurements published in the supplement of paper PMC11780869.

Test system: Bacillus subtilis
Test: cleaved RNA product abundance (RNA/gDNA barcode ratio) relative to median wild-type variant (ratio to wild type); higher = more accumulation of the downstream cleavage product
Settings: cleavage site: cggR-gapA (positions -7 to +36 mutated)
Outline: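 Truncated aprE or tetM reporter mRNAs with barcoded RNase Y cleavage-site windows, mutagenized from oligos at a 9% error rate, sat in the B. subtilis chromosome. Cells grew in LB at 37°C from OD600 0.0003 to 0.3. Gel-selected cleaved RNA was reverse transcribed and its barcodes sequenced with those from genomic DNA, collapsing by UMI. Cleaved product abundance equals the RNA:gDNA barcode ratio per construct over the median construct with the unmutated site.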

[1] = experiment (reporter, strain, medium): exp 2b: truncated aprE reporter, strain BJT200
[2] = experiment (reporter, strain, medium): exp 4a: truncated aprE reporter, strain BJT201 with 2% xylose (RNase J1 expressed)
[3] = experiment (reporter, strain, medium): exp 6: tetM reporter, strain 168

Sequence | cleaved RNA product abundance [1] | cleaved RNA product abundance [2] | cleaved RNA product abundance [3]
ACAGACGAAGGAGCCGCAAAGAAGTTATTAAGGGATGAATAATCCCTCAATATAAATATTTCTCACTTATTTAAA | 1 | 0.864 | –
ACAGACGAAGGAGCCGCAAAGAAGTTATTAAGGGATGAATAATCCCTCAATATAAATCTCTCTCACTTATTTAAA | 0.652 | 0.679 | 0.701
ACAGACGAAGGAGCCGCAAAGAAGTTATTAAGGGATGAATAATCCCTCAATATAAATGACTCTCACTTATTTAAA | – | 1.3 | –
ACAGACGAAGGAGCCGCAAAGAAGTTATTAAGGGATGAATAATCCCTCAATATAAATGTCTCTCACTTATTTAAA | 0.498 | 0.636 | 0.546
ACAGACGAAGGAGCCGCAAAGAAGTTATTAAGGGATGAATAATCCCTCAATATAAATGTTTCTCACTTATTTAAA | – | 0.369 | –
ACAGACGAAGGAGCCGCAAAGAAGTTATTAAGGGATGAATAATCCCTCAATATAAATTACTCTCACTTATTTAAA | – | 0.951 | –
ACAGACGAAGGAGCCGCAAAGAAGTTATTAAGGGATGAATAATCCCTCAATATAAATTATCTCTCACTTATTTAA | – | 0.975 | –
ACAGACGAAGGAGCCGCAAAGAAGTTATTAAGGGATGAATAATCCCTCAATATAAATTTCTCTCACTTATTTAAA | 0.72 | 0.761 | 0.391
ACAGACGAAGGAGCCGCAAAGAAGTTATTAAGGGATGAATAATCCCTCAATATAAATTTGTCTCACTTATTTAAA | 0.98 | – | –
ACAGACGAAGGAGCCGCAAAGAAGTTATTAAGGGATGAATAATCCCTCAATATAACCATCTCTCACTTATTTAAA | – | 0.296 | –
ACAGACGAAGGAGCCGCAAAGAAGTTATTAAGGGATGAATAATCCCTCAATATAACTATCTCTCACTTATTTAAA | 0.201 | 0.146 | 0.267
ACAGACGAAGGAGCCGCAAAGAAGTTATTAAGGGATGAATAATCCCTCAATATAAGTATCTCTCACTTATTTAAA | 0.397 | 0.42 | 0.462
ACAGACGAAGGAGCCGCAAAGAAGTTATTAAGGGATGAATAATCCCTCAATATAATGATCTCTCACTTATTTAAA | – | 0.348 | –
ACAGACGAAGGAGCCGCAAAGAAGTTATTAAGGGATGAATAATCCCTCAATATAATTACCTCTCACTTATTTAAA | – | 0.435 | –
ACAGACGAAGGAGCCGCAAAGAAGTTATTAAGGGATGAATAATCCCTCAATATAATTATCTCTCACTTATTTAAA | 0.673 | 0.491 | 0.338
ACAGACGAAGGAGCCGCAAAGAAGTTATTAAGGGATGAATAATCCCTCAATATACATATCTCTCACTTATTTAAA | 0.933 | 0.838 | 0.498
ACAGACGAAGGAGCCGCAAAGAAGTTATTAAGGGATGAATAATCCCTCAATATACATCTCTCTCACTTATTTAAA | – | 0.206 | –
ACAGACGAAGGAGCCGCAAAGAAGTTATTAAGGGATGAATAATCCCTCAATATAGATATCTCTCACTTATTTAAA | 0.711 | 0.683 | –

Sequence | cleaved RNA product abundance [1] | cleaved RNA product abundance [2] | cleaved RNA product abundance [3]
ACAGACGAAGGAGCCGCAAAGAAGTTATTAAGGGATGAATAATCCCTCAATATATAAATCTCTCACTTATTTAAA | – | 1.13 | –
ACAGACGAAGGAGCCGCAAAGAAGTTATTAAGGGATGAATAATCCCTCAATATATAGATCTCTCACTTATTTAAA | – | 0.77 | –
ACAGACGAAGGAGCCGCAAAGAAGTTATTAAGGGATGAATAATCCCTCAATATATATAACTCTCACTTATTTAAA | 0.679 | 0.429 | –
ACAGACGAAGGAGCCGCAAAGAAGTTATTAAGGGATGAATAATCCCTCAATATATATATCTCTCACTTATTTAAA | 0.874 | 0.885 | 0.832
ACAGACGAAGGAGCCGCAAAGAAGTTATTAAGGGATGAATAATCCCTCAATATATATATTTCTCACTTATTTAAA | – | 0.817 | –
ACAGACGAAGGAGCCGCAAAGAAGTTATTAAGGGATGAATAATCCCTCAATATATATTTCTCTCACTTATTTAAA | – | 0.561 | –
ACAGACGAAGGAGCCGCAAAGAAGTTATTAAGGGATGAATAATCCCTCAATATCAATATCTCTCACTTATTTAAA | 0.126 | 0.103 | 0.216
ACAGACGAAGGAGCCGCAAAGAAGTTATTAAGGGATGAATAATCCCTCAATATGAATATCTCTCACTTATTTAAA | 0.153 | 0.102 | 0.0685
ACAGACGAAGGAGCCGCAAAGAAGTTATTAAGGGATGAATAATCCCTCAATATTAATATCTCTCACTTATTTAAA | 0.169 | 0.113 | 0.249
ACAGACGAAGGAGCCGCAAAGAAGTTATTAAGGGATGAATAATCCCTCAATCTAAATATCTCTCACTTATTTAAA | 0.126 | 0.138 | 0.193
ACAGACGAAGGAGCCGCAAAGAAGTTATTAAGGGATGAATAATCCCTCAATGTAAATATCTCTCACTTATTTAAA | 0.139 | 0.13 | 0.154
ACAGACGAAGGAGCCGCAAAGAAGTTATTAAGGGATGAATAATCCCTCAATTTAAATATCTCTCACTTATTTAAA | 0.182 | 0.218 | 0.195
ACAGACGAAGGAGCCGCAAAGAAGTTATTAAGGGATGAATAATCCCTCAATTTAAATGTCTCTCACTTATTTAAA | – | 0.048 | –
ACAGACGAAGGAGCCGCAAAGAAGTTATTAAGGGATGAATAATCCCTCAATTTATATATCTCTCACTTATTTAAA | – | 0.2 | –
ACAGACGAAGGAGCCGCAAAGAAGTTATTAAGGGATGAATAATCCCTCACTATAAATAACTCTCACTTATTTAAA | 0.175 | 0.285 | –
ACAGACGAAGGAGCCGCAAAGAAGTTATTAAGGGATGAATAATCCCTCACTATAAATATCTCTCACTTATTTAAA | 0.215 | 0.277 | 0.208
ACAGACGAAGGAGCCGCAAAGAAGTTATTAAGGGATGAATAATCCCTCACTATATATATCTCTCACTTATTTAAA | – | 0.319 | –
